In PMC3248895:

Target: polymerized nonmuscle actin (F-actin) (UniProt P60709)
Test: co-sedimentation

Kd: 10.7 µM
Substance: GST-connecdenn 3 789–801 wild type (from UniProt Q8IV53 789-801) (peptide)
